Test results from US20160083465A1 (AVEO PHARMACEUTICALS, published 2016).
Positions count from the first letter of the chain named. Blank lines part the entries; values can stand above or below the binder they belong to.

Legend:
cleaved-rhGDF15 = biological target: T1, cleaved-rhGDF15 (human, UniProt Q99988 197-308); assay: SPR Biacore T100, 37 C, antibody captured by anti-mouse IgG, antigen in solution
T1 sequence: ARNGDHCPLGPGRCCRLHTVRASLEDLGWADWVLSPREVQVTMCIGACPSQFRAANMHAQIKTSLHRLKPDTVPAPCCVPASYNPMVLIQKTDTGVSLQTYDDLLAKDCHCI
Method: (§1) Rabbit anti-mouse IgGs (GE Healthcare) were immobilized on carboxymethylated dextran CM4 sensor chips (GE Healthcare) by amine coupling, according to a standard protocol. Analyses were performed at 37° C. using PBS containing 0.05% surfactant P20 as running buffer. The antibodies were captured in individual flow cells at a flow rate of 10 μL/minute. Injection time was varied for each antibody to yield an Rmax between 30 and 60 RU. 250 μg/mL mouse Fc (Jackson ImmunoResearch, West Grove, Pa.) was injected at 30 μL/minute for 120 seconds to block non-specific binding of capture antibodies to mouse Fc portion of the recombinant GDF15 protein when needed. […] The dissociation phase was monitored for up to 1500 seconds. The surface was then regenerated with two 60-second injections of 10 mM Glycine-HCl, pH 1.7, at a flow rate of 30 μL/minute.
(§2) Kinetic parameters were determined using the kinetic function of the BIAevaluation software (GE Healthcare) with double reference subtraction.

[1] = biological target: T2, untagged recombinant human GDF15 (rhGDF15 (Peprotech)) (human, UniProt Q99988 197-308, limits assumed); assay: as above
T2 construct: Bought from Peprotech
T2 sequence (looked up): T1 sequence
Method: as §1, §2

[2] = biological target: T3, 6xHis tagged recombinant human GDF15 (His-rhGDF15) (human, UniProt Q99988 197-308); assay: as above
T3 construct: Bought from R&D Systems
T3 sequence: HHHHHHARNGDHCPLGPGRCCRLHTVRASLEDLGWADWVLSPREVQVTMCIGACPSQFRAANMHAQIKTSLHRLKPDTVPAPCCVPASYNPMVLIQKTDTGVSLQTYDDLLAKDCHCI
Method: as §1, §2

[3] = biological target: T4, mouse IgG1 Fc-mature human GDF15 fusion protein (mFc-rhGDF15) (mouse; human); assay: as above
T4 construct: Made in CHOK1SV cells, purified by Protein A and size exclusion; also called mouse Fc fused to human GDF15
T4 chain: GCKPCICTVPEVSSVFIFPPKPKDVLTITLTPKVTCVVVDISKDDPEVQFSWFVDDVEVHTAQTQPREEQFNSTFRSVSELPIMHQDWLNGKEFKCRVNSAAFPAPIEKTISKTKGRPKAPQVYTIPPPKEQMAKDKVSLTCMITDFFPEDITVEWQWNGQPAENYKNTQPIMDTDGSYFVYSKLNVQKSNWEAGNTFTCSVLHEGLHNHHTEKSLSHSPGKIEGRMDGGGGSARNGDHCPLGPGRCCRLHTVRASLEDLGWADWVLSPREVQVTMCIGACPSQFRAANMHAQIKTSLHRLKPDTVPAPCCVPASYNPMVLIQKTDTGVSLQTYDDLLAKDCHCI
Method: as §1, §2

[4] = biological target: T4, mouse IgG1 Fc-mature human GDF15 fusion …; assay: BLI Octet QK, 30 C, antibody from supernatant on anti-human Fc sensor, 400 nM mFc-rhGDF15
Method: The Octet analysis was performed at 30° C. using 1× Kinetics Buffer (ForteBio, Inc.) as assay buffer. Anti-human IgG Fc Capture (AHC) biosensors (ForteBio, Inc.) were used to capture human antibodies onto the sensors. Sensors were saturated in assay buffer for at 300 seconds before the assay. […] Baseline was established by dipping the sensors into 1× assay buffer for 200 seconds. Next, association was monitored for 220 seconds in 400 nM mFc-rhGDF15 protein, and dissociation was followed for 600 seconds in buffer alone.
Kinetic parameters of the antibody, kₐ, kd, and KD were determined.

[5] = biological target: T4, mouse IgG1 Fc-mature human GDF15 fusion …; assay: SPR Biacore T100, 37 C, purified antibody captured by anti-human IgG Fc, antigen in solution
Method: Goat anti-human IgGs (Fc fragment specific, Jackson ImmunoResearch, West Grove, Pa.) were immobilized on carboxymethylated dextran CM4 sensor chips by amine coupling, according to a standard protocol. Analyses were performed at 37° C. using PBS containing 0.05% surfactant P20 as running buffer. The antibodies were captured in individual flow cells at a flow rate of 10 μL/minute. Injection time was varied for each antibody to yield an Rmax between 30 and 60 RU. […] The dissociation phase was monitored for up to 1200 seconds. The surface was then regenerated with two 60-second injections of 10 mM Glycine-HCl, pH 2.25, at a flow rate of 30 μL/minute.
as §2

B1: 06C11 (antibody, mouse IgG1, kappa)
heavy: QVTLKESGPGILQPSQTLSLTCSFSGFSLNTYGMGVSWIRQPSGKGLEWLAHIYWDDDKRYNPSLKSRLTISKDASNNRVFLKITSVDTADTATYYCAQRGYDDYWGYWGQGTLVTISAAKTTPPSVYPLAPGSAAQTNSMVTLGCLVKGYFPEPVTVTWNSGSLSSGVHTFPAVLQSDLYTLSSSVTVPSSTWPSETVTCNVAHPASSTKVDKKIVPRDCGCKPCICTVPEVSSVFIFPPKPKDVLTITLTPKVTCVVVDISKDDPEVQFSWFVDDVEVHTAQTQPREEQFNSTFRSVSELPIMHQDWLNGKEFKCRVNSAAFPAPIEKTISKTKGRPKAPQVYTIPPPKEQMAKDKVSLTCMITDFFPEDITVEWQWNGQPAENYKNTQPIMDTDGSYFVYSKLNVQKSNWEAGNTFTCSVLHEGLHNHHTEKSLSHSPGK
light: DIVMTQSQKFMSTSVGDRVSVTCKASQNVGTNVAWFQQKPGQSPKALIYSASYRYSGVPDRFTGSGSGTDFILTISNVQSEDLAEYFCQQYNNYPLTFGAGTKLELKRADAAPTVSIFPPSSEQLTSGGASVVCFLNNFYPKDINVKWKIDGSERQNGVLNSWTDQDSKDSTYSMSSTLTLTKDEYERHNSYTCEATHKTSTSPIVKSFNRNEC
notes: Murine monoclonal from hybridoma, IgG1 kappa; also called antibody 06C11
Kd (cleaved-rhGDF15): 0.17 nM | koff (cleaved-rhGDF15): 0.002 s⁻¹ | kon (cleaved-rhGDF15): 1.2e+07 M⁻¹ s⁻¹ | Kd [1]: 0.21 nM | koff [1]: 0.0046 s⁻¹ | kon [1]: 2.2e+07 M⁻¹ s⁻¹ | Kd [2]: 0.051 nM | koff [2]: 0.0015 s⁻¹ | kon [2]: 2.9e+07 M⁻¹ s⁻¹ | Kd [3]: 0.17 nM | koff [3]: 0.00068 s⁻¹ | kon [3]: 4.5e+06 M⁻¹ s⁻¹

B3: Hu14F11-1 (antibody, human IgG1, kappa)
heavy: not shown
light: DIVMTQSQKFMSTSVGDRVSVTCKASQNVGTNVAWYQQKPGQSPKALIYSPSYRYSGVPDRFTGSGSGTDFTLTISNVQSEDLAEYFCQQYNSYPHTFGGGTKLEMKRTVAAPSVFIFPPSDEQLKSGTASVVCLLNNFYPREAKVQWKVDNALQSGNSQESVTEQDSKDSTYSLSSTLTLSKADYEKHKVYACEVTHQGLSSPVTKSFNRGEC
notes: Mouse variable regions, human IgG1 and kappa constant regions; also called Chimeric 14F11
Kd [4]: 0.032 nM | koff [4]: 1.9e-05 s⁻¹ | kon [4]: 630000 M⁻¹ s⁻¹ | Kd [5]: 0.16 nM | koff [5]: 0.00046 s⁻¹ | kon [5]: 3e+06 M⁻¹ s⁻¹

B6: 01G06 (antibody, mouse IgG1, kappa)
heavy: EVLLQQSGPELVKPGASVKIPCKASGYTFTDYNMDWVKQSHGKSLEWIGQINPNNGGIFFNQKFKGKATLTVDKSSNTAFMEVRSLTSEDTAVYYCAREAITTVGAMDYWGQGTSVTVSSAKTTPPSVYPLAPGSAAQTNSMVTLGCLVKGYFPEPVTVTWNSGSLSSGVHTFPAVLQSDLYTLSSSVTVPSSTWPSETVTCNVAHPASSTKVDKKIVPRDCGCKPCICTVPEVSSVFIFPPKPKDVLTITLTPKVTCVVVDISKDDPEVQFSWFVDDVEVHTAQTQPREEQFNSTFRSVSELPIMHQDWLNGKEFKCRVNSAAFPAPIEKTISKTKGRPKAPQVYTIPPPKEQMAKDKVSLTCMITDFFPEDITVEWQWNGQPAENYKNTQPIMDTDGSYFVYSKLNVQKSNWEAGNTFTCSVLHEGLHNHHTEKSLSHSPGK
light: DIQMTQSPASLSASVGETVTITCRTSENLHNYLAWYQQKQGKSPQLLVYDAKTLADGVPSRFSGSGSGTQYSLKINSLQPEDFGSYYCQHFWSSPYTFGGGTKLEIKRADAAPTVSIFPPSSEQLTSGGASVVCFLNNFYPKDINVKWKIDGSERQNGVLNSWTDQDSKDSTYSMSSTLTLTKDEYERHNSYTCEATHKTSTSPIVKSFNRNEC
notes: Murine monoclonal from hybridoma, IgG1 kappa; also called antibody 01G06
Kd (cleaved-rhGDF15): 0.11 nM | koff (cleaved-rhGDF15): 0.00086 s⁻¹ | kon (cleaved-rhGDF15): 7.5e+06 M⁻¹ s⁻¹ | Kd [1]: 0.093 nM | koff [1]: 0.0019 s⁻¹ | kon [1]: 2.1e+07 M⁻¹ s⁻¹ | Kd [2]: 0.081 nM | koff [2]: 0.0011 s⁻¹ | kon [2]: 1.4e+07 M⁻¹ s⁻¹ | Kd [3]: 0.21 nM | koff [3]: 0.0007 s⁻¹ | kon [3]: 5.6e+06 M⁻¹ s⁻¹

Results, then the binder that gave them:

Kd (cleaved-rhGDF15): 0.11 nM | koff (cleaved-rhGDF15): 0.0006 s⁻¹ | kon (cleaved-rhGDF15): 5.7e+06 M⁻¹ s⁻¹ | Kd [1]: 0.071 nM | koff [1]: 0.0022 s⁻¹ | kon [1]: 3.1e+07 M⁻¹ s⁻¹ | Kd [2]: 0.096 nM | koff [2]: 0.00042 s⁻¹ | kon [2]: 4.4e+06 M⁻¹ s⁻¹ | Kd [3]: 0.22 nM | koff [3]: 0.00033 s⁻¹ | kon [3]: 1.7e+06 M⁻¹ s⁻¹
B2: 14F11 (antibody, mouse IgG1, kappa)
heavy: QVTLKESGPGILQPSQTLSLTCSFSGFSLSTYGMGVGWIRQPSGKGLEWLADIWWDDDKYYNPSLKSRLTISKDTSSNEVFLKIAIVDTADTATYYCARRGHYSAMDYWGQGTSVTVSSAKTTPPSVYPLAPGSAAQTNSMVTLGCLVKGYFPEPVTVTWNSGSLSSGVHTFPAVLQSDLYTLSSSVTVPSSTWPSETVTCNVAHPASSTKVDKKIVPRDCGCKPCICTVPEVSSVFIFPPKPKDVLTITLTPKVTCVVVDISKDDPEVQFSWFVDDVEVHTAQTQPREEQFNSTFRSVSELPIMHQDWLNGKEFKCRVNSAAFPAPIEKTISKTKGRPKAPQVYTIPPPKEQMAKDKVSLTCMITDFFPEDITVEWQWNGQPAENYKNTQPIMDTDGSYFVYSKLNVQKSNWEAGNTFTCSVLHEGLHNHHTEKSLSHSPGK
light: B1 light with F36Y, A51P, I72T, N93S, L96H, A100G, L106M
notes: Murine monoclonal from hybridoma, IgG1 kappa; also called antibody 14F11

Kd [4]: 0.18 nM | koff [4]: 6.2e-05 s⁻¹ | kon [4]: 340000 M⁻¹ s⁻¹
B4: Hu14F11-23 (antibody, human IgG1, kappa)
heavy: not shown
light: B3 light
notes: Chimeric 06C11 heavy chain with chimeric 14F11 light chain, human IgG1 kappa; tested in supernatant; also called chimeric light 14F11 with chimeric heavy 06C11

Kd [4]: 0.31 nM | koff [4]: 0.00022 s⁻¹ | kon [4]: 710000 M⁻¹ s⁻¹
B5: Hu14F11-24 (antibody, human IgG1, kappa)
heavy: not shown
light: B3 light with Y36F, P51A, T72I, S93N, H96L, G100A, M106L
notes: Chimeric 14F11 heavy chain with chimeric 06C11 light chain, human IgG1 kappa; tested in supernatant; also called chimeric light 06C11 with chimeric heavy 14F11
